Results as given in US9127040B2, “Regulation of sodium channels by PLUNC proteins” (The University of North Carolina at Chapel Hill, priority 2011, dated 2015).
Ends that are not written are not given here.

What was measured:
ENaC [1] = molecular target: T1, ENaC (Homo sapiens, UniProt P37088+P51168+P51170); assay: Thin film amiloride-sensitive transepithelial PD in CF HBECs; type: cell-based; settings: 10 μM S18, over 24 h
T1 construct: measured the transepithelial voltage under thin film conditions in human bronchial epithelial cultures; endogenous in cells; host or cells: primary human bronchial epithelial cultures (normal or CF donors)
T1 sequence (P37088 1-669): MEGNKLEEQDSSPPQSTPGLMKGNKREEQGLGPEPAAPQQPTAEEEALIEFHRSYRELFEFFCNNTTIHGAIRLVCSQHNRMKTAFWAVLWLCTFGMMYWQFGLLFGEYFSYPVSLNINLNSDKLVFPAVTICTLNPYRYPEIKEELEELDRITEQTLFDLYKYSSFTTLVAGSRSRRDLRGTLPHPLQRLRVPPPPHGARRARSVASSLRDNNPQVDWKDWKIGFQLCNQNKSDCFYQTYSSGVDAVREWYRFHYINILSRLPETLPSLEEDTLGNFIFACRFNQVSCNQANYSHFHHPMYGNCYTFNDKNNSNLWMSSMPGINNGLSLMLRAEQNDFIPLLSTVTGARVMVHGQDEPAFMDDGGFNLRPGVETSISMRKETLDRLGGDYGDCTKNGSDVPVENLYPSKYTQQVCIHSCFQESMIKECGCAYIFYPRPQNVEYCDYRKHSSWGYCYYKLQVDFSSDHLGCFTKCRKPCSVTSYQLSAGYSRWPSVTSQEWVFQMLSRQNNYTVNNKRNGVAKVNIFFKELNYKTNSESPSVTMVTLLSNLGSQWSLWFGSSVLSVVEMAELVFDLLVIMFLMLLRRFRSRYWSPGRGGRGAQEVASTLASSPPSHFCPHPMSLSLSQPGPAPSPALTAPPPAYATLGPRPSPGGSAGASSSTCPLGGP
T1 sequence (P51168 1-640): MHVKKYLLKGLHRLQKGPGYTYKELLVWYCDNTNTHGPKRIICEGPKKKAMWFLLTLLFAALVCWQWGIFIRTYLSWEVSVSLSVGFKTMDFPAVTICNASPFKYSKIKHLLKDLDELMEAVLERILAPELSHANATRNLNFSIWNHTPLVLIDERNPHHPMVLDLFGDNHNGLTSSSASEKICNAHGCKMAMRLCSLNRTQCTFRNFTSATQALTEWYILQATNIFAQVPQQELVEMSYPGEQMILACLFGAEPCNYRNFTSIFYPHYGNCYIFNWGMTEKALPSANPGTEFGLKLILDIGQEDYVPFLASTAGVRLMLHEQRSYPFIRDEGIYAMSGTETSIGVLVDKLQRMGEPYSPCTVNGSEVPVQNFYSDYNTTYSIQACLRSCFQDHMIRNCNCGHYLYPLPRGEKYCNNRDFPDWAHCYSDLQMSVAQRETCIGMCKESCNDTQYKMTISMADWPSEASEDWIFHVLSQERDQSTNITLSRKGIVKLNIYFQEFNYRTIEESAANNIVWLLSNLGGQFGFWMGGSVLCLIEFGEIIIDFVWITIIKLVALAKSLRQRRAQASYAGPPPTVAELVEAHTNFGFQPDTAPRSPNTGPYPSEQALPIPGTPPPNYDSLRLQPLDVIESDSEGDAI
T1 sequence (P51170 1-649): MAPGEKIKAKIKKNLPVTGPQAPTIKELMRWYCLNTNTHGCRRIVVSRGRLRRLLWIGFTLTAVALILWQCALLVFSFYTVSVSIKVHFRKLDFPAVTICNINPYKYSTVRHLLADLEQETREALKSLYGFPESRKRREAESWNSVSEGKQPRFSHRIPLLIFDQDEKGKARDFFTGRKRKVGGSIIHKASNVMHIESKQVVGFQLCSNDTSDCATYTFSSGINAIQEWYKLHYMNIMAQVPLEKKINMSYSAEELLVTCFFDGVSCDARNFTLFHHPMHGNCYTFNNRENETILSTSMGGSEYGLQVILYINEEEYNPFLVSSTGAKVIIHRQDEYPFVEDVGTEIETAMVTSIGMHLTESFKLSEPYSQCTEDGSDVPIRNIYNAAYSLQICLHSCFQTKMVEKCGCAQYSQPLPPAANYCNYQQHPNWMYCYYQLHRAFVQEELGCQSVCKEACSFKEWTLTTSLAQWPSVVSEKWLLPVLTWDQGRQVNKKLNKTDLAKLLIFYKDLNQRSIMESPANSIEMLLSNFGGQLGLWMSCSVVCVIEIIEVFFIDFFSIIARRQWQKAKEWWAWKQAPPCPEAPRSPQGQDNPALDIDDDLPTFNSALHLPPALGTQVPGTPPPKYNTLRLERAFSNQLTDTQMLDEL
Protocol: A, airway surface liquid (ASL) height with time in CF HBECs measured by XZ confocal microscopy after apical addition of 20 μl Ringer with rhodamine-dextran. ▪=control; ▴=10 μM S18. Both n=6. B, Thin film amiloride-sensitive transepithelial PD measured in the same cultures as A, with microelectrodes positioned in the ASL and serosal bath. Open bars, control, closed bars, S18, n=6. C, Dose response to S18 vs. ASL height in CF primary human bronchial epithelial cultures (HBECs) measured 8 h after S18 addition. D, Bar graph of 8 h ASL height in CF HBECs. Control (open bars), S18 black bars, aprotinin, gray bars. NE, neutrophil elastase. ANS, activated neutrophil supernatant. All n=6. *p<0.05 different to vehicle. †p<0.05 different to aprotinin.
(§1) A single-barreled potential difference-sensing electrode was placed in the airway surface liquid by micromanipulator and used in conjunction with a macroelectrode in the serosal solution to measure transepithelial voltage using a voltmeter (World Precision Instruments). […] Transepithelial resistance was routinely measured using the EVOM system (WPI) as previously described (Tarran et al., J. Gen. Physiol. 127:591 (2006)).

ENaC [2] = molecular target: T1, ENaC; assay: Transepithelial voltage (PD), thin film conditions, human bronchial epithelial cultures; type: cell-based
Source text: Tissue procurement and cell culture: Cells were harvested by enzymatic digestion from human bronchial tissue as previously described under a protocol approved by the UNC School of Medicine IRB (Tarran et al., J. Gen. Physiol. 127:591 (2006)). Human excess donor lungs and excised recipient lungs were obtained at the time of lung transplantation from portions of main stem or […] bronchi and cells were harvested by enzymatic digestion. All preparations were maintained at an air-liquid interface in a modified bronchial epithelial medium and used 2-5 weeks after seeding on 12 mm T-Clear inserts (Corning Costar) coated with human placental type VI collagen (Sigma). Phosphate buffered saline (PBS) was used for washing human bronchial epithelial culture mucosal surfaces. HBECs were maintained at an air-liquid interface in a modified bronchial epithelial growth medium (BEGM) with 5% CO2 at 37° C. and used 2-5 weeks after seeding on 12-mm T-clear inserts (Corning-Costar, Corning, N.Y., USA) (Randell, Methods Mol. Biol. 742:285 (2011)).
as §1

For GGLPVPLDQTLPLNVNPA [S18], the “amiloride-sensitive PD” value (ENaC [1]) was “reduced the amiloride-sensitive PD”.

B1: SPLUNC1: human SPLUNC1 (SEQ ID NO:1), 256 amino acid secreted PLUNC family protein; rSPLUNC1 is the purified V5/6His-tagged recombinant form (protein, listed as Homo sapiens)
chain: MFQTGGLIVFYGLLAQTMAQFGGLPVPLDQTLPLNVNPALPLSPTGLAGSLTNALSNGLLSGGLLGILENLPLLDILKPGGGTSGGLLGGLLGKVTSVIPGLNNIIDIKVTDPQLLELGLVQSPDGHRLYVTIPLGIKLQVNTPLVGASLLRLAVKLDITAEILAVRDKQERIHLVLGDCTHSPGSLQISLLDGLGPLPIQGLLDSLTGILNKVLPELVQGNVCPLVNEVLRGLDITLVHDIVNMLIHGLQFVIKV
modifications: V5/6His tag in recombinant form
notes: rSPLUNC1 is the purified V5/6His-tagged recombinant form
For B1, the transepithelial voltage (ENaC [2]; 50 ng/ml rSPLUNC1 in 20 μl Ringer, PBS-washed cultures) was “significantly reduced the transepithelial voltage”, the “regulation of transepithelial voltage in cultures lacking SPLUNC1” value (ENaC [2]; SPLUNC1 shRNA knockdown, 50 ng/ml rSPLUNC1) was “restored” and the “transepithelial voltage, cultures not pre-washed” value (ENaC [2]; airway surface liquid left to accumulate for 24 h) was “without further effect”. For the same molecule, the onset of inhibition (ENaC [2]; human bronchial epithelial cultures, FIG. 2C, 2D) was 30 to 60 min, the “transepithelial voltage, addition to amiloride-treated cultures” value (ENaC [2]; rSPLUNC1 added to the same amiloride-treated cultures, n=12) was “without further effect” and the “rate of inhibition of the transepithelial voltage” value (ENaC [2]; rSPLUNC1 vs aprotinin addition, effects not additive) was “identical rates”.
